Assay results taken from the supplement of paper PMC12042874.
± gives the uncertainty stated by the source.

Assay: amyloid nucleation score (Sup35N fusion, yeast selection) (log enrichment); library NNK3; higher = more nucleation; inactive = no reads after selection
In short: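 Libraries of peptides of 20 random codons fused to Sup35N were expressed in psi-negative yeast and induced 24 hours with 100 μM copper sulfate. Selection was 7 days at 30°C on medium lacking adenine and uracil, and plasmid inserts were Illumina-sequenced before and after selection. Nucleation score is the DiMSum log enrichment of output over input reads, centred on the mode score of non-aggregating sequences, and sequences with under 100 input reads were left out.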

Substance | amyloid nucleation score
YGLSFHDLYGCCLRLGIGMD | 1.63 ± 0.081
MCEMVFTWDSWLLRRIRQDW | 1.5 ± 0.087
FLSLWLCSRCVSKSCGGFML | inactive
LSGRIAKTKRLIVHRLCEEG | inactive
KVCHSWVWHILGSLDYITRG | inactive
LSRLFLSRVGHVIYTKSSVD | inactive
SIFCFDYWQDIGTFMPSAVK | inactive
HQIFYVFEYEYSKRLLCMWW | inactive
WSIRMW | inactive
MIIAFFCDYNGVEG | inactive
CYADPG | inactive
LYSPYLGCDNGATQFWSGTT | 0.226 ± 0.88
QSFLATSFSFYFLSPGYVNY | inactive
AETQCSSYDLCDTPSLFDVR | inactive
RIGAYYPMFIFAVLVGSALG | inactive
RFLFNKRL | -0.029 ± 0.81
HDCSYLGILKDMDS | inactive
KINGIDSSGMCAISLIKKGA | inactive
TTELVF | inactive
AKSPL | -0.681 ± 0.96
LSFNTVDSPGRIYFRIWYGV | 1.07 ± 0.14
TMYSLD | inactive
NMVYLGDLTITMSTFDAFR | 0.53 ± 0.18
VLMGMRCEREFPE | inactive

Substance | amyloid nucleation score
CIYCIVA | 2.64 ± 0.087
NGFCCM | inactive
HLFGDFDKWVDKLWRYNRVD | 0.985 ± 0.21
GSYRWAVGGKDWGHWDRCLA | inactive
CSGYARTLS | inactive
TRVFTGKQPENDRET | inactive
FDGTGRLRF | -0.629 ± 1.2
AVSSSLNWLGFVRISGSRY | -0.432 ± 1
LNFNSWNGLKYR | inactive
LVVPGYNLL | inactive
LSDAR | inactive
GVLVTANLYFWMEPSALPAM | inactive
DIRRSYTLVRTGFTV | inactive
DRLALEFVYRR | 0.145 ± 0.44
CKRLPIACLTSLTKAR | inactive
MIFNVDGLDLVPDKVRYYRD | inactive
GTCKS | inactive
HYDFWIISYLPRSPGNMAID | inactive
DYGATGHC | inactive
MGVVNFVITGNSYCAKVMLY | inactive
CPCGNVGVFLGLTRTVKGKS | inactive
RKYSVG | inactive
RSVVEWGS | inactive
IKVEATRSAVASLRLHI | inactive

Substance | amyloid nucleation score
SVFRSMSTSILVFSPVHYCE | inactive
KSSMKLLSPP | inactive
KIWFCNWFANNYFMIANSST | 0.627 ± 0.11
SFSCVHDDCRKLLQLRLDST | inactive
NLDLGVDLGMQPIGSIKKST | inactive
LVSSMMIHVYFNEVLVFMIC | 0.796 ± 0.1
AASIFGNSV | inactive
ANPFFSLDK | inactive
MSPFADKRHLADILCVHGS | inactive
FPHSSGCYDAVTWSSWNGGH | inactive
LVTFFSGRYGHWWLDNCWRQ | inactive
FLNTSPYCGTL | inactive
FNNFRFTGQHR | inactive
PWDSLW | 0.894 ± 0.12
LSNVVGRATGKRTTSYHEDA | 0.43 ± 0.17
RTLAIRYSSNPLTIRLLQSL | inactive
CFRCS | inactive
IWCSRAGVRWVEMNVEQVYW | inactive
CLYLAS | inactive
CANANVP | inactive
FAICMFRGYLLYFLGLEDEA | inactive
RTRCAPLDMVEL | inactive
GSCKVADAPCSHARR | -0.331 ± 1.3
KRASMPVPGSSWLHQFKE | inactive

Substance | amyloid nucleation score
YIETISPFLCGCYSIFSPMI | 2.8 ± 0.084
RDIASQC | -0.698 ± 0.98
VVLMALVQVYFTSGGMFIKD | inactive
ACYITTFLGADSVVEYQNDE | inactive
SLVSYRLWIYDLWMTWL | inactive
LQYNISVWELC | inactive
VSFYIVKSLEEAGVSR | 1.36 ± 0.15
VWVSVWVVLTAV | inactive
GRKKVVTWQLLARQP | inactive
VFYGKGETYQEWHSLYFLKS | -0.067 ± 0.98
LLFENIQK | inactive
HTVKEGSSNNVVRVRIARRF | inactive
SMHYAQYIIIYWRMSSRVYD | inactive
KLNILKTGMLCYVPHLIAHI | inactive
VLGPLQLRRIAHETGRCNAM | inactive
WHIEVC | inactive
TVHYSLIRWTSGNCGLGYW | 0.841 ± 0.17
SSHLVWCYDANNHWADHK | inactive
FKYLVIVNNWG | 2.82 ± 0.071
TNFAYMQREGS | inactive
KYVVSYLGFKFGWKHYSKYY | inactive
GVSYMNCTHWTL | inactive
AWRAISDKTDGGSYDKSVIV | -0.364 ± 0.8
GRYFSRNYAMCLLLFTTGEV | inactive

Substance | amyloid nucleation score
IRALRKRDEDGSLLTGTLFC | -0.385 ± 1.1
CSIGVRSVVCS | inactive
FLNCFSC | 2.69 ± 0.054
EVFGVIDDNYFCR | inactive
DAIIVSIAYILG | inactive
VSFNKPLKQVKGPAVTGWKE | inactive
SAGACSV | inactive
VLVFSLISFLSWDWCSYLV | inactive
FSSFG | inactive
IVTVLNSVLGKGFQQAPRRG | inactive
LYHPGALVHQQIDS | inactive
YYSVMCRVRVA | inactive
VTRIW | inactive
YLIDVGL | inactive
DVHWISGKSNYSDDNRCYST | inactive
SRVLTYDT | inactive
LRDTGWLIGLMCCSIQIGSG | 2.13 ± 0.069
IFEVYDVIT | inactive
MVGVGSKLGLLAATEVWNEI | inactive
KVAILVHILNNLVRVRVCFN | inactive
QNHTVHSARWDNGSTANTTT | inactive
EVIRCRSSEEIPGRTNSMWD | inactive
SQDGYDLHRSFRLLEVGSEL | inactive
WCESDVMDFGSYFADFLS | inactive

Substance | amyloid nucleation score
NVVCNDPPPGVYEDLGWTGI | inactive
RLGMWVFWCRL | inactive
KERCLVSHCTTLCALFLRVI | inactive
CTTVDVGALVDGESNHCISL | inactive
KQRVASTTTVAPHPKNKD | inactive
GFIMEYDEY | inactive
VSCESECLLLMIKKYFGSDS | 0.12 ± 0.26
YETYKYLYGFVML | inactive
VYFENSGFTTVTREACLY | inactive
LYHTLKTHVKIFPCHSTDAP | inactive
GYTDRLVLNRKGGQYGGFEN | inactive
LCMQFNLVWRYDRRETINSE | 1.16 ± 0.11
LDYPNVCMDFLSKVFRDSVR | inactive
NRGNSIRRDNWFRVILRTCH | inactive
WLLFDPVGVVKQSLVARNSY | inactive
SWFVHKFSIRYNLFDFSYIF | inactive
TVRFLVHYITAKGKSVGITK | inactive
WAFSVKKWRTVLRKCILQWG | inactive
VAKVNCTW | -0.431 ± 0.9
NTCDAPMSNGYAWWD | -0.399 ± 0.75
RVEVSSTGV | inactive
NVFQVALRNSLSMLGSGMRM | inactive
AELSIADPTEMSGRVFACNV | inactive
LAVGRTWMLVANWDSMGQIV | inactive

Substance | amyloid nucleation score
SVESACFTSSWVNHFFTFSN | inactive
RNMLVAPDSCMASRWYGVHL | inactive
TNKASLFSPAEHIYGKS | inactive
GDERGLLMYVPG | inactive
KIDAN | inactive
WEHLGETYGVFMSTEDRESG | inactive
RDYKLVRHHSHKDVLSCILW | inactive
LFSSVC | inactive
SGGGIPGTLGSGDPSSPNTQ | inactive
VPFVRVNDALVVVSLWDKVL | inactive
MRTINIS | inactive
ALYTCMNLSYPLHSEFVTPR | inactive
ECYFFHFTR | 1.34 ± 0.12
ILRFFIT | inactive
FDVDGLILFICWCMQRAHM | inactive
MFRDIWLFGPISWIYECCRS | 2.36 ± 0.091
YRESDKVTFWLYLSRVDDLD | 2.06 ± 0.083
NRFLNIQKRSTPLNLPSSSV | inactive
CKFFQGKEEVS | inactive
